Measured values published in the nanobody polyreactivity screen of Harvey et al. (2022).

experiment: yeast display, Sf9 membrane polyspecificity reagent, FACS + sequencing; frameworks hold sequencing errors
In short: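 Polyreactivity labels are assigned by the sorting gate from which each nanobody was recovered. The gates were low and high (top ~1%), set on anti-HA fluorescence for expression and streptavidin fluorescence for reagent binding. Before sorting, galactose-induced (36–48 hours) yeast display cells were stained for 1 hour at 4 °C with 10% biotinylated, detergent-solubilized Sf9 membrane reagent.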

Sequence | polyreactivity (PSR sort gate)
QVQLVESGGGLVQAGGSLRLSCAASGSTFPIYAMGWYRQAPGKERELVAAITRSGGSTNYADSVKGRFTISRDNAKNTVYLQMNSLKPEDTAVYYCNRTRYRSFHYDYWGQGTQVTVSS | high polyreactivity
QVQLVESGGGLVQAGGSLRLSCAASGSTFPKYAMGWYRQAPGKERELVASISVTTGSTYYADSVKGRFTISRDNAKNTVYLQMNSLKPEDTAVYYCAKRTYSRKFRGAYNYWGQGTQVTVSS | high polyreactivity
QVQLVESGGGLVQAGGSLRLSCAASGSTFPKYAMGWYRQAPGKERELVASISVTTGSTYYADSVKGRFTISRDNAKNTVYLQMNSLNPEDTAVYYCAKRTYSRKFRGAYNYWGQGTQVTVSS | high polyreactivity
QVQLVESGGGLVQAGGSLRLSCAASGSTFPLYAMGWYRQAPGKERDLVAAITSGGGNTYYADSVKGRFTISRDNAKITVYLQMNSLKPEDTAVYSCAAVGGYKSYYSYEYDYWGQGTQVTVSS | low polyreactivity
QVQLVESGGGLVQAGGSLRLSCAASGSTFPLYAMGWYRQAPGKERELVAAITSGGGNTYYADSVKGRFTISRDNAKNTVYLQMNRLKPEDTAVYYCAAVGGYKSYYSYEYDYWGQGTQVTVSS | low polyreactivity
QVQLVESGGGLVQAGGSLRLSCAASGSTFPLYVMGWYRQSPGKERELVAAIDWSGGSTYYADSVKGRFTISRDNAKNTVFLQMNSLKPVDTAVYYCNRKRYGYDYEYWGQGTQVTVSS | low polyreactivity
QVQLVESGGGLVQAGGSLRLSCAASGSTFPPNAMGWYRQAPGKERELVAVISYTSGRTYYADSVKGRFTISRDNAKNTVYLQMNSLKPEDTAVYYCNKRVLYRQRGFNYWGQGTQVTVSS | high polyreactivity
QVQLVESGGGLVQAGGSLRLSCAASGSTFPPYAMGWYRQAPGKERELVAAIDWSDGTTYYADSVKGRFTISRDNAKNTVYLQMNSLKPEDTAVSYCSASLSQSEFDYWGQGTQVTVSS | low polyreactivity
QVQLVESGGGLVQAGGSLRLSCAASGSTFPQYAMGWSRQAPGKERELVAAISWSGGRTYYADSVKGRFTISRDNAKNTVYLQMNSLKPEDTAVYYCAATYPGQYGYNYWGQGTQVTVSS | high polyreactivity
QVQLVESGGGLVQAGGSLRLSCAASGSTFPSNAMGGYRQAPGKARELDAAISDSGSTTYYADSVKGRFTISRDNAKNTVYLQMNSLKPEDTAVYYCNADWWQYDFVFWTFGYDDWGQGTQVTLSS | low polyreactivity
QVQLVESGGGLVQAGGSLRLSCAASGSTFPSYAMGWYRQAPGKERELVAAINSGGGTNYADSVKGRFTISRDNAKNTVYFQMNSLKPEDTAVYYCAKSRDDYTNTEGGYWGQGTQVTVSS | low polyreactivity
QVQLVESGGGLVQAGGSLRLSCAASGSTFPTYAMGWSRQAPGKERELVAAIDWSDGSITYYADSVKGRFTISRDNAKNTVFLQLNSLKPEDTAVYYCAKDYSQYGWRYDYWGQGTQVTVSS | low polyreactivity
QVQLVESGGGLVQAGGSLRLSCAASGSTFPTYAMGWYRQAPGKERELVADITWSGGSTYYADSVKGRFTISRDNAKNTVYLQMNSLKPEDTAVYYCAAVFKAGSAYDYWGQGTQVTVSS | high polyreactivity
QVQLVESGGGLVQAGGSLRLSCAASGSTFPVNTMGWYRQAPGKERELVAAITKNGANTYYADSVKGRFTLSRDNAKNTVFLQMNSLKPEDTAVYYCAARYVYGKSYSRWLVELDYWGQATQVTVSS | low polyreactivity
QVQLVESGGGLVQAGGSLRLSCAASGSTFPVYAMGGYRQAPGKERELVAAISLIGGSTYYADSVKGRFTISRDTAKNTVYLQMNSLKPEDTAVYYCNTAVISSPPAIDVLEMDYWGQGTQVTVSS | low polyreactivity
QVQLVESGGGLVQAGGSLRLSCAASGSTFPVYAMGWYRQAPGKERELFAAISRAGSTNYADSVKGRFTISRDNAKNTVYLQMNSLKPEDTAVYYCAARGYLWAGEWYVRRDYWGQGTQVTVSS | high polyreactivity
QVQLVESGGGLVQAGGSLRLSCAASGSTFPVYAMGWYRQAPGKERELVAAISRAGSTNYADSVKGRFTISRDNAKNSVYLQMNSLKPEDTAVYYCAARGYLWAGEWYVRRDDWGQGTQVTVSS | high polyreactivity
QVQLVESGGGLVQAGGSLRLSCAASGSTFPWYVMGGYRQAPGKERELVAAISLSGGRTYYADSVMGRFTISRDNAKNRVYLQMNSLKPEDTAVYYCAAEFKLVSHTYYYWGQGTQVTVSS | low polyreactivity
QVQLVESGGGLVQAGGSLRLSCAASGSTFPYNAMGWYRPAPGKERELVAAITAGGARTYYADSVKGRFTISRDNAKNTVYLQMNSLKPEDTAVYYCNKVKATSYRYYYWGQGTQVTVSS | high polyreactivity
QVQLVESGGGLVQAGGSLRLSCAASGSTFPYNAMGWYRQAPGKERELVAAITSSGRTNYADSVKGRFTISRDNANNTVYLQMNSLKPEDTAVYYCAAARWYAHRVDYWGQGTQVTVSS | low polyreactivity

Sequence | polyreactivity (PSR sort gate)
QVQLVESGGGLVQAGGSLRLSCAASGSTFPYNAMGWYRQAPGKERELVADISGDSGSTYYADSVKGRFTISRDNAKNTVYLQMNSLKPEDTAVYYCAGEGVHYAGDYGTGYDYWGQGTQVTVSS | low polyreactivity
QVQLVESGGGLVQAGGSLRLSCAASGSTFPYNAMGWYRQAPGQERELVAAITRGGRTYYADSLKGRFTISRDNSKNTVYLQMISLKPEDTAVYYCAAYYSGYSKKFDYWGQGTQVTVSS | high polyreactivity
QVQLVESGGGLVQAGGSLRLSCAASGSTFPYNTMGWYRQAHGKEREFVAAITGDGGTTYYADSVKGRFTISRDNAKNTVYLQMNSLKPEDTAVYYCAVPYPAEGYGGDYWGQGTQGTVSS | low polyreactivity
QVQLVESGGGLVQAGGSLRLSCAASGSTFPYVMGWYRQAPGKERELVAAISQSTGGITNYADSVKGRFTISRDNAKNTVYLQMNSLKPEDTAVYYCAATSWRYQQSTRYKGRRYYSWGQGSQVTVSS | high polyreactivity
QVQLVESGGGLVQAGGSLRLSCAASGSTFPYYAMGWYRLAPGKERELVAAISFRGTRTYYADSVKGRFTISRDNAKNTVYLQMNSLKPEDTAVYYCAADASTYYGTQWASYYYWGQGTQVTVSS | high polyreactivity
QVQLVESGGGLVQAGGSLRLSCAASGSTFPYYAMGWYRQAPGKERELVAAISRRGTSTYYADSVKGRFTISRDNAKNTVYLQMNSLTPEDTAVYYCAAVGGAFPNRYYWGQGTQVTVSS | high polyreactivity
QVQLVESGGGLVQAGGSLRLSCAASGSTFPYYAMGWYRQAPGKERELVAAITSGGSTNYADSVKGRFTISRDNAKNTVYLQMNSLKPEDTAVYYCAADFALPNALPEYDYGAFDYNYWGQGTQVTVSS | low polyreactivity
QVQLVESGGGLVQAGGSLRLSCAASGSTFPYYGLGWYRQAPGKERELVAVISRRGTGTYYADSVKGRFTISRDNAKNTVYLQMNSLKPEDTAVYYCATAGYFIYWGQGTQVTVSS | low polyreactivity
QVQLVESGGGLVQAGGSLRLSCAASGSTFPYYTMGWYRQAPGKERELVAAICGRGTSTYYADSVKGRFTISRDNAKNTVYLQMISLKPEDTAVYYCAARRADVQPYSPVYAYGAYDYWGQGTQVTVSS | high polyreactivity
QVQLVESGGGLVQAGGSLRLSCAASGSTFPYYTMGWYRQAPGKERELVAAITWRGGRTYYADSVKGRFTISRDNAKNTVYLQMNSLKPEDTAVYYCAVYRRWYSGLYDYWGQGTQVTVSS | high polyreactivity
QVQLVESGGGLVQAGGSLRLSCAASGSTFPYYVMGWYRQAPGKERELVAAIDESGDRTYYADSVKGRFTISRDNAKNTVYLQMNSLKPEDTAVYYCAAEGWYEYWYDYWGQGTQVTVSS | high polyreactivity
QVQLVESGGGLVQAGGSLRLSCAASGSTFPYYVMGWYRQAPGKERELVAAISGSGTRTYYADSVKGRFTISRDNAKNTVYLQMNSLKPEDTAVYYCAARKYPQGFDYWGQGTQVTVSS | low polyreactivity
QVQLVESGGGLVQAGGSLRLSCAASGSTFPYYVMGWYRQAPGKERELVATITNSGGSTYYADSVKGRFTISRDNAKNTVYLQMNSLKPEDTAVYYCAAVYWYGLYHRYYYWGQGTQVTVSS | low polyreactivity
QVQLVESGGGLVQAGGSLRLSCAASGSTFQFNTMGWYRQAPGKERELDAAITYSGGSTYYADSVKGRFTISRDNAKNTVYLQMNSQKPEDTAVYYCAADIITYDYPSYDGYIRYPYYYWGQGTQVTVTS | low polyreactivity
QVQLVESGGGLVQAGGSLRLSCAASGSTFQFNVMGWYRQAPGKERELVAAITSGASTYYADSVKGRFTISRDNAKNTVYLQMNSLEPVDTAVYYWAVDYSFRYDYVQRYYYWGQGTQVTVSS | high polyreactivity
QVQLVESGGGLVQAGGSLRLSCAASGSTFQFYAMGWYRQAPGKEREFVAGIRSSGGTYYADSVKGRFTISRDNAKNTVYLQMNSLKPEDTAVYYCAAVSSYSPYRRTYYYWGQGTQVTVSS | high polyreactivity
QVQLVESGGGLVQAGGSLRLSCAASGSTFQFYAMGWYRQAPGKERELVAAIDGSDGDTYYADSVKGRFTISRDNAKNTVYLQMNSLKPEDTAVYYCNADRDALVGYDYDYWGQGTQVTVSS | low polyreactivity
QVQLVESGGGLVQAGGSLRLSCAASGSTFQGNAMGWYRHAPGKERELVAAISRSGGSTYADSVKGRFTISRDNAKNTVYLQINSLKPEDTAVYYCAAYSGVGYLWFDYWGQGTQVTVSS | low polyreactivity
QVQLVESGGGLVQAGGSLRLSCAASGSTFQGNAMGWYRQAPGKERELVAAISRSGGSTYADSVKGRFTMSRDNAKNTVYLQMNSLKPEDTAVYYCAAYSGVGYLWFDYWGQGTQVTVSS | low polyreactivity
QVQLVESGGGLVQAGGSLRLSCAASGSTFQGYALRWYRQAPGKERELVAAITKRSGRTYYADSVKGRFTISRDNAKNTVYLQMNSLKPEDTAVYYCAKVTSYSEYDYWGQGTQVTVSS | high polyreactivity
